Consider ten molecules from patent US20110135636A1 (SYMPHOGEN A S, published 2011).

Experiment [1] concerns the target T1, full length human EGFR expressed on the cell surface (human, UniProt P00533 25-1210).
T1 construct: whole, on cells; also called EGFR on A431-NS cells; EGFR on HN5 cells
Put plainly: cell ELISA, IgG titrated on paraformaldehyde-fixed A431-NS cells. As to the method: (§1) Cell ELISA: The relative binding affinities defined as the molar concentration giving the half maximal OD (ED50) were determined by antibody titrations on A431-NS cells. Briefly, 10,000 A431-NS cells were grown in 96 well ELISA plates containing DMEM with added 0.5% FCS and 1% P/S at 37° C., 5% CO₂ overnight. […] Then 50 μl of a secondary Goat-anti-Human (Fab specific) HRP conjugate diluted 1:5000 in DMEM containing 1% BSA was added and incubated on ice for 30 min. Finally wells were washed four times with PBS and plates developed by adding 50 μl/well TMB Plus substrate and read at 620 nm every 5-15-30 min. After incubation with substrate the reaction was stopped by addition of 1 M H₂SO₄ and absorbance read at 450 nm. The functional affinity expressed as ED50 values were calculated by subtraction of the average background binding with secondary reagent only, followed by normalization of the binding curves by plotting % maximal binding relative to each antibody tested.
A general note: ELISA stands for enzyme-linked immunosorbent assay.

Experiment [2] addresses T1, full length human EGFR expressed on the …. Put plainly: cell ELISA, IgG titrated on paraformaldehyde-fixed A431-NS cells; given as ED50. As to the method: as §1
Experiment [3] addresses T2, recombinant human EGFR extracellular domain with 6xHis (human, UniProt P00533 25-645).
T2 construct: In-house produced; also called 6xHis EGFR ECD; soluble human EGFR ECD; not shown: 6xHis tag
Description: SPR, reference cycle of the run with mix N=6-1. How it is done: (§2) SPR analysis was performed on a Biacore 3000 machine containing four flow cells. A CM5 Biacore chip was conjugated with 10,000 Resonance units (Ru) polyclonal anti-His antibody to flow cells 1-4 according to the manufacturer's instructions. […] Immediately after antigen injection the maximal binding of the Anti-EGFR mAb without competition was established in each flow cell during a reference run. Briefly 5 μl antibody at a concentration of 40 μg/ml was injected over all flow cells with captured EGFR followed by stripping of the antibody/antigen complex with a low pH acid wash (10 sec. contact time with 10 mM Glycine-HCl, pH2). After the determination of Anti-EGFR antibody maximal binding to each flow cell, a competition run was performed during the same Biacore cycle. Flow cells were first saturated with EGFR ECD antigen followed by injection of different reference antibodies or Anti-EGFR antibodies into separate flow cells using the same antigen saturating conditions as outlined above. This step was immediately followed by a second injection of Anti-EGFR antibody over the flow cell saturated with EGFR antigen and competition antibody to minimize the dissociation of either antigen or blocking antibody. Then the antibody/antigen complexes were stripped off with a low pH acid wash (10 sec. contact time with 10 mM Glycine-HCl, pH 2) and the whole cycle beginning with the reference run was repeated with a new Anti-EGFR antibody. The degree of inhibition of tested Anti-EGFR antibodies were determined by comparing the Ru max value of the individual Anti-EGFR antibody before and after competition by introduction of report points recorded two seconds before and after injection of each sample.
For orientation: In SPR one partner is held on a chip, and binding of the other changes the refractive index at the surface.

The target of experiment [4] is T3, full length Cynomolgus EGFR expressed on CHO cells (Cynomolgus monkey (Macaca fascicularis), UniProt P55245 25-1210 (rhesus entry)).
T3 construct: The entry was cloned including the signal peptide; also called Cynomolgus full length EGFR
Description: FACS on CHO cells transfected with full length Cynomolgus EGFR. As to the method:
(§3) Bound antibody was detected with a PE labelled goat F(ab′)₂ anti-human IgG FC. Gating was performed on uniform cells (SCC/FCS properties) expressing EGFR. Binding is expressed as % maximal antibody binding at 1 nM concentration.
(§4) Briefly quantitative FACS analysis was performed on a BD FACS array Bioanalyzer System to determine the number of EGFR molecules expressed on the surface of CHO cells transfected with either Human or Cynomolgus full length EGFR. […] Antibodies were incubated with cells for 14 hours on a shaker, to promote full antigen saturation at all antibody concentrations tested, while FACS buffer was added 0.02% NaN₃ and temperature kept at 4° C. to prevent receptor internalization. After incubation, cells were pelleted at 1200 RPM for 5 min at 4° C. and resuspended in 200 ul FACS buffer. Next cells were stained with a secondary Goat F(ab′)₂ anti-Human IgG FcGamma PE diluted 1:500 and incubated for 30 min at 4° C. on a shaker. Finally cells were washed twice in FACS buffer and analyzed on a BD FACS array Bioanalyzer System with gating on EGFR expressing CHO cells displaying uniform forward/side scatter properties.

For experiment [5], the target named is T1, full length human EGFR expressed on the …. Put plainly: FACS on CHO cells transfected with full length Human EGFR. As to the method: as §3, §4
The target in experiment [6] is T2, recombinant human EGFR extracellular …. Put plainly: SPR competition, competitor 1042. As to the method:
as §2

Experiment [7] has the same target. Description: SPR, reference cycle of the run with mix N=6. As to the method: as §2
Experiment [8] has the same target. Put plainly: SPR, EGFR ECD without competitor. As to the method: as §2
Experiment [9] has the same target. Description: SPR competition, EGFR ECD first saturated with mix N=6 1261+1347+992+1024+1030+1361. As to the method:
as §2

As usually defined, the EC50 is the concentration that produces a half-maximal response. The EC50 (read off the curve) is the concentration needed to bring the measured effect to its halfway point. As a reminder, the % inhibition is the change of the read-out against control, counted positive when it falls.

B1: antibody 992 (antibody, human IgG1, kappa, V domains shown)
VH: EVQLQQPGSELVRPGASVKLSCKASGYTFTSYWMHWVKQRPGQGLEWIGNIYPGSRSTNYDEKFKSKATLTVDTSSSTAYMQLSSLTSEDSAVYYCTRNGDYYVSSGDAMDYWGQGTSVTVSS
VL: DIQMTQTTSSLSASLGDRVTISCRTSQDIGNYLNWYQQKPDGTVKLLIYYTSRLHSGVPSRFSGSGSGTDFSLTINNVEQEDVATYFCQHYNTVPPTFGGGTKLEIKR
notes: Chimeric mouse/human IgG1 kappa; the VL entry includes the human kappa constant region
B1: in experiment [1], the “Log ED50” value was -0.56. For the same molecule, it took 0.3 nM to reach a half-maximal effect in experiment [2] (EC50). Besides, the figures for the Rumax reference cycle in experiment [3], in experiment [7] and in experiment [8] were 71 Ru, 85 Ru and 81 Ru, respectively. In addition, the “EC50 (read off the curve)” value in experiment [4] and in [5] was around 0.01 nM each time. In addition, the “% inhibition” value was 21% in experiment [6] and 116% in experiment [9]. Moreover, the Rumax competition cycle in [9] was -14 Ru.

B2: antibody 1257 (antibody, human IgG1, kappa, V domains shown)
VH: EVQLQQSGPELVKPGASVKIPCKTSGYTFTDYNMAWVKQSHGKSLEWIGDIIPNNGGAIYNQKFKGKATLTVDKSSSTASMELRSLTSEDTAVYFCARKNIYYRYDGAGALDYWGQGTSVTVSS
VL: QIVLTQSPAIMSASPGEKVTMTCSASSSVSYIYWYQQKPGSSPRLLIYDASNLASGVPVRFSGSGSGTSYSLTISRMEAEDAATYYCQQWSSYPITFGSGTKLEIKR
notes: Chimeric IgG1 kappa
B2: the “% inhibition” value in [6] worked out at 16%.

B3: antibody 1261 (antibody, human IgG1, kappa, V domains shown)
VH: EVQLVESGGGLVKPGGSLKLSCAVSGFTFSSYVMSWVRQTPEKRLEWVATITSGGRNIYYLDSVKGRFTISRDNAKNTLYLQMSSLRSEDTAMYYCARHEDYRYDGYYAMDYWGQGTSVTVSS
VL: QIVLTQSPAIMSASPGEKVTITCSASSSVSYMHWFQQKPGTSPKLWIYSTSNLASGVPARFSGSGSGTSYSLTISRMEAEDAATYYCQQRSSYPYTFGGGTKLELKR
notes: Chimeric IgG1 kappa
In the case of B3, the Rumax reference cycle is 139 Ru in [3], 135 Ru in experiment [7] and 157 Ru in experiment [8]. The “% inhibition” value was -18% in experiment [6] and 95% in experiment [9]. Moreover, the Rumax competition cycle in experiment [9] stood at 7 Ru.

B4: antibody 1030 (antibody, human IgG1, kappa, V domains shown)
VH: EVQLVESGGGLVKPGGSLKLSCAASGFTFSSYALSWVRQTPERRLEWVASISGVGSTYFPDSVKGRFTMSRDNARNILYLQMSSLRSEDTAMYYCARGSDGYFYAMDYWGQGTSVTVSS
VL: DIVLTQSPASLAVSLGQRATISCRASKSVSTSGYSFMHWYQLKPGQPPKLLIYLASNLESGVPARFSGSGSGTDFTLNIHPVEEEDAATYYCQHSREFPLTFGGGTKLEIKR
notes: Chimeric IgG1 kappa
Regarding B4, the “Log ED50” value in [1] came to 0.17. In experiment [2], the EC50 was 1.5 nM. Further, the figures for the Rumax reference cycle in experiment [3] and in experiment [7] were 74 Ru and 87 Ru, respectively. Further, the “% inhibition” value in experiment [6] is 11%; in experiment [9], 87%. In addition, the Rumax competition cycle in experiment [9] was found to be 12 Ru.

B5: antibody 1208 (antibody, human IgG1, kappa, V domains shown)
VH: EVQLVESGGGLVKPGGSLKLSCAASGFAFSSYDMSWVRQTPEKRLEWVAYIGSGDDNTHYPDSVKGRFTISRHNAKNTLYLQMSSLKSEDTAMYYCARQKYGNYGDTMDYWGQGTSVTVSS
VL: DVVMTQTPLSLPVSLGDQASISCRSSQSLVHSNGNTYLHWYLQKPGQSPKLLIYKVSNRFSGVPDRFSGSGSGTDFTLKISRVEAEDLGVYFCSQSTHVPTFGGGTKLEIKR
notes: Chimeric IgG1 kappa; also called clone 1208
In the case of B5, the “% inhibition” value in [6] came to 9%.

B6: antibody 1284 (antibody, human IgG1, kappa, V domains shown)
VH: QVQLQQPGAELVKPGASVKLSCKASGYTFTSDWMHWMKQRPGQGLEWIGEINPSNGRSSYNEKFKSKATLTVDKSSSTAYMQLSSLTSEDSAVYYCARIGGIYVETYWGQGTLVTVSS
VL: DIVLTQSPASLAVSLGQRATISCRASQSVSTSTYSYMHWYQQKSGQPPKLLIKYASNLESGVPARFSGSGSGTDFTLNIHPVEEEDTATYYCQHSWEIPWTFGGGTKLEIKR
notes: Chimeric IgG1 kappa
As to B6, the “% inhibition” value in [6] is -1%.

B7: antibody 1024 (antibody, human IgG1, kappa, V domains shown)
VH: QVQLQQPGAELVEPGGSVKLSCKASGYTFTSHWMHWVKQRPGQGLEWIGEINPSSGRNNYNEKFKSKATLTVDKSSSTAYMQFSSLTSEDSAVYYCVRYYGYDEAMDYWGQGTSVTVSS
VL: DIVMTQAAFSNPVTLGTSASISCRSSKSLLHSNGITYLYWYLQKPGQSPQLLIYQMSNLASGVPDRFSSSGSGTDFTLRISRVEAEDVGVYYCAQNLELPYTFGGGTKLEIKR
notes: Chimeric IgG1 kappa
B7: in [1], the “Log ED50” value is -0.49. The molecule also had an EC50 in [2] of 0.3 nM. The Rumax reference cycle came out at 122 Ru in experiment [3], 110 Ru in experiment [7] and 100 Ru in [8]. The “EC50 (read off the curve)” value is around 0.008 nM in [4] and around 0.01 nM in [5]. Besides, the “% inhibition” value in [6] was determined as 71%; in [9] it was 113%. For the same molecule, the Rumax competition cycle in experiment [9] was -14 Ru.

B8: antibody 1260 (antibody, human IgG1, kappa, V domains shown)
VH: QVQLKESGPGLVAPSQSLSITCTVSGFSLTTYGVHWVRQPPGKGLEWLGVIWAGGSTNYNSALMSRLSIKKDNSKSQVFLKMNSLQTDDTAMYYCARAYGYNFDYWGQGTTLTVSS
VL: DIQMTQTTSSLSASLGDRVTISCSASQGITNYLNWYQQKPDGTVKLLIYYSSSLHSGVPSRFSGSGSGTDYSLTISNLEPEDIATYYCQQYSEIPYTFGGGTKLELKR
notes: Chimeric IgG1 kappa
On to B8, for which the “% inhibition” value in experiment [6] turned out to be 31%.

B9: antibody 1320 (antibody, human IgG1, kappa, V domains shown)
VH: QVQLQQPGAELVKPGASMKLSCKASGYTFTNYWMHWVKQRPGQGLEWIGEINPSNGRTNYNEKFKSKATLTVDKSSSTAYMQLSSLTSEDSGVYYCAKGGNYYDYDWDYWGQGTTLTVSS
VL: DIQMTQTTSSLSASLGDRVTISCSASQDISNYLNWYQQKPDGTVKLLIYHTSTLHSGVPSRFSGSGSGTDYSLTISNLEPEDIATYYCQQYSKLPWTFGGGTKLEIKR
notes: Chimeric IgG1 kappa
On to B9, for which the binding result in [4] is reported as “no binding (tested: 1 nM)”. The half-maximal effective concentration (EC50 (read off the curve)) in experiment [5] was around 0.01 nM. Further, the “% inhibition” value in experiment [6] came out at 48%.

B10: antibody 1347 (antibody, human IgG1, kappa, V domains shown)
VH: QVQLKESGPGLVAPSQSLSITCTVSGFSLTGHGVNWVRQPPGKGLEWLGMIWGDGSTDYNSTLKSRLSISKDNSKSQVFLKMNSLQTDDTARYYCARGYGYLYYFDYWGQGTTLTVSS
VL: ENVLTQSPAIMSASPGEKVTMTCRASSSVSSSYLHWYQQKSGASPKLWIYSTSNLASGVPARFSGSGSGTSYSLTVNSVETEDAATYYCHQYSGFPFTFGSGTKLELKR
notes: Chimeric IgG1 kappa
For B10, the Rumax reference cycle stood at 107 Ru in experiment [3], 91 Ru in experiment [7] and 75 Ru in experiment [8]. In addition, the “% inhibition” value in experiment [9] was 80%. For the same molecule, the Rumax competition cycle in experiment [9] came out at 19 Ru.
